Experimental data: patent publication US7968692B2, “Elongase genes and uses thereof” (Abbott Laboratories, priority 1998, dated 2011)

Tested on: S. cerevisiae 334
Assay: Mouse elongase MELO4 activity in yeast
Format: cell-based, Saccharomyces cerevisiae
Experimental: The construct pRAE-84 was transformed into S. cerevisiae 334 (Hoveland et al., supra) and screened for elongase activity. The negative control strain was S. cerevisiae 334 containing pYX242 vector. The cultures were grown for 42-48 hours at 30° C., in selective media (Ausubel et al., supra), in the presence of 25 μM of GLA, AA, ADA, STA, EPA, or DPA. […] However, there were accumulations of ADA, ω6-tetracosatetraenoic acid (TTA, C24:4n-6), ETA, DPA, and ω3-tetracosapentaenoic acid (TPA, C24:5n-3), respectively (FIG. 56). The n-6 fatty acid substrate AA was converted to ADA, which was subsequently converted to TTA, and the n-3 fatty acid EPA was converted to DPA, which was subsequently converted to TPA. The levels of these fatty acids were 0.64% (ADA), 1.07% (TTA), 1.47% (DPA), and 7.06% (TPA), respectively, of the total fatty acids in the strain containing the pRAE-84 sequence. […] The expression of MELO4 in yeast results in the conversion of C20 and C22 fatty acids to the respective elongated products. The conversion rate of C22 to C24 fatty acids is much greater when the exogenously added substrate is […].
To further confirm the substrate specificity of MELO4 protein (MELO4), the recombinant yeast strain 334(pRAE-84) was grown in minimal media containing 25 μM of saturated, monounsaturated, or polyunsaturated fatty acids. […] When AA was added exogenously, the levels of product fatty acids were 0.5% (ADA) and 0.39% (TTA), and when ADA was added exogenously, the level of product fatty acid was 1.3% (TTA) of the total fatty acids in the strain containing the pRAE-84 sequence. […] MELO4p is also involved in the elongation of GLA to DGLA. The lipid profile of the strain containing the pRAE-84 sequence, in presence of GLA, had 0.43% of DGLA, which represented 14.7% conversion of GLA to DGLA. MELO4p is also involved in the elongation of n-3 PUFAs EPA and DPA (FIG. 53C). […] When EPA was added, the levels of these fatty acids were 1.21% (DPA) and 3.38% (TPA), and when DPA was added, the level of the product fatty acid was 3.09% (TPA) of the total fatty acids in the strain containing the pRAE-84 sequence. […] MELO4p is also involved in the elongation of STA to C22:4n-3. When STA was added, the levels of fatty acids produced by two-carbon elongation were 0.3% ETA and 0.23% C22:4n-3. […] MELO4p also appeared to be involved in the elongation of ALA; however, the small amount of the fatty acid produced by two-carbon elongation (0.16% of ETrA) may not be significant.

[1] = 25 μM AA added exogenously, FIG. 57B
[2] = 25 μM ADA added exogenously, FIG. 57B
[3] = 25 μM DPA added, second experiment
[4] = 25 μM EPA added, second experiment
[5] = C22 substrate ADA added, 25 μM, FIG. 56
[6] = C22 substrate printed as EPA, 25 μM, FIG. 56

B1: MELO4: mouse PUFA elongation enzyme from brain cDNA (SEQ ID NO:5), expressed in yeast from pRAE-84 (protein, listed as Mus musculus)
chain: MEQLKAFDNEVNAFLDNMFGPRDSRVRGWFLLDSYLPTFILTITYLLSIWLGNKYMKNRPALSLRGILTLYNLAITLLSAYMLVELILSSWEGGYNLQCQNLDSAGEGDVRVAKVLWWYYFSKLVEFLDTIFFVLRKKTNQITFLHVYHHASMFNIWWCVLNWIPCGQSFFGPTLNSFIHILMYSYYGLSVFPSMHKYLWWKKYLTQAQLVQFVLTITHTLSAVVKPCGFPFGCLIFQSSYMMTLVILFLNFYIQTYRKKPVKKELQEKEVKNGFPKAHLIVANGMTDKKAQ
[1]
  conversion of AA to ADA: 8.7%
  conversion of ADA to TTA: 43.8%
  level of ADA, of the total fatty acids: 0.5%
  level of TTA, of the total fatty acids: 0.39%
25 μM AA added, FIG. 56
  conversion of AA to ADA: 10.4%
  conversion of ADA to TTA: 62.6%
  level of ADA, of the total fatty acids: 0.64%
  level of TTA, of the total fatty acids: 1.07%
[2]
  conversion of ADA to TTA: 7.3%
  level of TTA, of the total fatty acids: 1.3%
25 μM ALA, may not be significant
  level of ETrA: 0.16%
[3]
  conversion of DPA to TPA: 46.4%
  level of TPA, of the total fatty acids: 3.09%
25 μM EPA added, FIG. 56
  conversion of DPA to TPA: 82.8%
  conversion of EPA to DPA: 32.7%
  level of DPA, of the total fatty acids: 1.47%
  level of TPA, of the total fatty acids: 7.06%
[4]
  conversion of DPA to TPA: 73.6%
  conversion of EPA to DPA: 24.0%
  level of DPA, of the total fatty acids: 1.21%
  level of TPA, of the total fatty acids: 3.38%
25 μM GLA, 42-48 hours at 30° C., FIG. 56
  elongation of GLA to DGLA: GLA was not elongated
25 μM GLA, FIG. 57B
  conversion of GLA to DGLA: 14.7%
  level of DGLA in lipid profile: 0.43%
25 μM STA added
  conversion of ETA to C22:4n-3: 43.4%
  conversion of STA to ETA: 11.1%
  level of C22:4n-3: 0.23%
  level of ETA: 0.3%
25 μM substrate
  elongation of monounsaturated fatty acids PTA, OA, or EA: also not involved
25 μM substrate, FIG. 57A
  elongation of saturated fatty acids PA, SA, ARA, or BA: not involved
[5]
  conversion of ADA to TTA: 9.2%
  level of TTA, of the total fatty acids: 2.4%
[6]
  conversion of C22 substrate to TPA: 43.9%
  level of TPA, of the total fatty acids: 3.82%
